According to article PMC4598101, “Growth of Chitinophaga pinensis on Plant Cell Wall Glycans and Characterisation of a Glycoside Hydrolase Family 27 β-L-Arabinopyranosidase Implicated in Arabinogalactan Utilisation” (PLoS ONE, 2015):

Assays:
[1] = substrate: O=[N+]([O-])c1ccc(O[C@H]2OC[C@H](O)[C@H](O)[C@H]2O)cc1; assay: continuous pNP release, spectrophotometer; type: biochemical, Chitinophaga pinensis; details: 50 mM sodium citrate pH 5.0, 30 °C
Description: (§1) continuous pNP release, spectrophotometer on CpArap27 (Cpin_5740 gene product)

[2] = substrate: O=[N+]([O-])c1ccc(O[C@H]2O[C@H](CO)[C@H](O)[C@H](O)[C@H]2O)cc1; assay: continuous pNP release, spectrophotometer; type: biochemical, Chitinophaga pinensis; details: 50 mM sodium citrate pH 5.0, 30 °C
Description: as §1

B1: CpArap27 (Cpin_5740 gene product) (Chitinophaga pinensis DSM 2588) (protein)
chain: AQQKKDFHSWAPTPPMGWNSWDCYGPTVTEAEVKANADYMASHLKSSGWQYIIVDIRWYVANDKSHGYNETDPAYNIDAYGRFQPAVNRFPSAANGKGFKPLADYIHSKGLKFGIHIMRGVPVVAVNKKLPVKGTNVTAADIYSKQDQCKWLHDMYTIVPDKTGAQEYYNSLFDMYAAWGLDFVKVDDLSAPIYFTEEIEMIRKAITRTGRKILLSTSPGETPIAQGAHVQQHANMWRTVDDFWDNWPHLKDHFEVFDRWNKWRTTGAWPDGDMLPLGHIGIRAERGQPRMTSFTKDEQYTLMTLWTIFRSPLMFGGNLPDNDPFTLSLLTNKQVLQVLNNSSNNRPVFNDKDKAAWTADMPGKSAKYLAVFNKADKDAAAVNVDLSEIGIKGSCTITDLWTGKVLGKFTGSFAPQINPHGAGLYKVTP
notes: ~48 kDa; monomer by SEC
Km [1]: 12.9 ± 3.27 mM
kcat [1]: 32.3 ± 3.58 s⁻¹
kcat/Km [1]: 2500 M⁻¹ s⁻¹

B2: CpArap27 (Cpin_5740 gene product) (Chitinophaga pinensis DSM 2588; I73D) (protein)
chain: AQQKKDFHSWAPTPPMGWNSWDCYGPTVTEAEVKANADYMASHLKSSGWQYIIVDDRWYVANDKSHGYNETDPAYNIDAYGRFQPAVNRFPSAANGKGFKPLADYIHSKGLKFGIHIMRGVPVVAVNKKLPVKGTNVTAADIYSKQDQCKWLHDMYTIVPDKTGAQEYYNSLFDMYAAWGLDFVKVDDLSAPIYFTEEIEMIRKAITRTGRKILLSTSPGETPIAQGAHVQQHANMWRTVDDFWDNWPHLKDHFEVFDRWNKWRTTGAWPDGDMLPLGHIGIRAERGQPRMTSFTKDEQYTLMTLWTIFRSPLMFGGNLPDNDPFTLSLLTNKQVLQVLNNSSNNRPVFNDKDKAAWTADMPGKSAKYLAVFNKADKDAAAVNVDLSEIGIKGSCTITDLWTGKVLGKFTGSFAPQINPHGAGLYKVTP
notes: ~48 kDa; monomer by SEC
Km [2]: 35.3 ± 11.9 mM
kcat/Km [2]: 0.00585 M⁻¹ s⁻¹
Km [1]: 8.63 ± 2.14 mM
kcat [1]: 0.00718 ± 0.000775 s⁻¹
kcat/Km [1]: 0.832 M⁻¹ s⁻¹

B3: CpArap27 (Cpin_5740 gene product) (Chitinophaga pinensis DSM 2588; I73C) (protein)
chain: AQQKKDFHSWAPTPPMGWNSWDCYGPTVTEAEVKANADYMASHLKSSGWQYIIVDCRWYVANDKSHGYNETDPAYNIDAYGRFQPAVNRFPSAANGKGFKPLADYIHSKGLKFGIHIMRGVPVVAVNKKLPVKGTNVTAADIYSKQDQCKWLHDMYTIVPDKTGAQEYYNSLFDMYAAWGLDFVKVDDLSAPIYFTEEIEMIRKAITRTGRKILLSTSPGETPIAQGAHVQQHANMWRTVDDFWDNWPHLKDHFEVFDRWNKWRTTGAWPDGDMLPLGHIGIRAERGQPRMTSFTKDEQYTLMTLWTIFRSPLMFGGNLPDNDPFTLSLLTNKQVLQVLNNSSNNRPVFNDKDKAAWTADMPGKSAKYLAVFNKADKDAAAVNVDLSEIGIKGSCTITDLWTGKVLGKFTGSFAPQINPHGAGLYKVTP
notes: ~48 kDa; monomer by SEC
Km [1]: 21.5 ± 10.4 mM
kcat [1]: 0.403 ± 0.119 s⁻¹
kcat/Km [1]: 18.8 M⁻¹ s⁻¹

B4: CpArap27 (Cpin_5740 gene product) (Chitinophaga pinensis DSM 2588; I73E) (protein)
chain: AQQKKDFHSWAPTPPMGWNSWDCYGPTVTEAEVKANADYMASHLKSSGWQYIIVDERWYVANDKSHGYNETDPAYNIDAYGRFQPAVNRFPSAANGKGFKPLADYIHSKGLKFGIHIMRGVPVVAVNKKLPVKGTNVTAADIYSKQDQCKWLHDMYTIVPDKTGAQEYYNSLFDMYAAWGLDFVKVDDLSAPIYFTEEIEMIRKAITRTGRKILLSTSPGETPIAQGAHVQQHANMWRTVDDFWDNWPHLKDHFEVFDRWNKWRTTGAWPDGDMLPLGHIGIRAERGQPRMTSFTKDEQYTLMTLWTIFRSPLMFGGNLPDNDPFTLSLLTNKQVLQVLNNSSNNRPVFNDKDKAAWTADMPGKSAKYLAVFNKADKDAAAVNVDLSEIGIKGSCTITDLWTGKVLGKFTGSFAPQINPHGAGLYKVTP
notes: ~48 kDa; monomer by SEC
Km [2]: 35.6 ± 15.2 mM
kcat [2]: 0.105 ± 0.0518 s⁻¹
kcat/Km [2]: 2.95 M⁻¹ s⁻¹
Km [1]: 6.56 ± 3.39 mM
kcat [1]: 0.528 ± 0.115 s⁻¹
kcat/Km [1]: 80.5 M⁻¹ s⁻¹
